Experimental data: the DeepSol protein solubility set

Experiment: soluble on expression in E. coli; label from the status in PepcDB or PDB records

Row | Sequence | soluble on expression in E. coli
1 | MVSKNKKLNLKDKYQYLTRDMAWEPTYQDKKDIFPEEDFEGIKITDWSQWEDPFRLTMDAYWKYQAEKEKKLYAIFDAFAQNNGHQNISDARYVNALKLFISGISPLEHAAFQGYSKVGRQFSGAGARVACQMQAIDELRHSQTQQHAMSHYNKHFNGLHDGPHMHDRVWYLSVPKSFFDDARSAGPFEFLTAISFSFEYVLTNLLFVPFMSGAAYNGDMATVTFGFSAQSDEARHMTLGLEVIKFILEQHEDNVPIVQRWIDKWFWRGFRLLSLVSMMMDYMLPNKVMSWSEAWEVYYEQNGGALFKDLERYGIRPPKYQDVANDAKHHLSHQLWTTFYQYCQATNFHTWIPEKEEMDWMSEKYPDTFDKYYRPRYEYLAKEAAAGRRFYNNTLPQLCQVCQIPTIFTEKDAPTMLSHRQIEHEGERYHFCSDGCCDIFKHEPEKYIQAWLPVHQIYQGNCEGGDLETVVQKYYHINIGEDNFDYVGSPDQKHWLSIKGRKPADKNQDDA | soluble
2 | MVSMNMFEEVEVEAYVYPTEDIEKVKKAMLNLVPGLKFEAFDKGEYMILVGRTRDKRALQRLYELFRGQQILDTARMMLEEGYFGEEIIIKVHKQVAYVGKVNFNEESPLGPITIIIRTKEPQKLMKWLAPRTKDGVPIEAAALEHHHHHH | not soluble
3 | MVSRLARLARRVGRKLKALTPTPKTPEPPSLPLILDAPVAPGFTTAREVWCAPGFGVVVDAGGQVLGGAARQALGFSPDLAALPGVRVSDGGSRLILPEGAPRLARGAVVAGWGDLRNYAGFVLNTLPALVEASKAGVLADHPLVTPPLTRWQADLLTLAGLASPLINAAPWVVLDEAVLSPPPSPVATHAMLAEVRERVLATPGPASGARPKLYVSRADAMNAVMVDEEGVEIELAALGYTIVRPETSSTRELIGLFREAKVIVAPTGTVLANALFCAADAQIVEIRPPGANGLWVRDLAVLAGATWHGFDAPGEKEAPGAPLDPALPPASAFGWRADAAALLAFLAQRSLEHHHHHH | not soluble
4 | MVSSAVKCGICRGVDGKYKCPKCGVRYCSLKCYKDAAKHVHKESEQPRAGTEANVEVVNNDKIINSSLAMNKTLKTKAFDDIYQNSAELQELLKYNTVKFHLAKVYRILSSTVNDGSSGKMNSDLQKELAVNYLNTLRYGGIHYNEAIEEFCQILLDKLNAVKK | soluble
5 | MVSSDVPKTQRALIFESYGGPLEIKQLPIPQPNEDELLVKMEYSGICHSDVHTWLGDFHYVSKCPMIGGHEGAGSVISVGSKVKNWQIGDKVGIKLVQGNCLNCEYCQTGHEPLCPHVWNIGVQKYGTFQEYATIRDVDAIKIPKSMNMAAAAPVLCGGVTAYKALKESEVKSGQIVAVTGAGGGLGSFAIQYARAMGMRVVAEDIVAHIREITDGGAHGVVNFAAAKVPMEKALEYVRKRGTVVFVGLAKDSKILVDTIPLIFNAVKIKGSIVGSRLDVNEAMDFVARGAVNVPLELVKLEDVAEVYTKMHDGKINSRVVVDFSL | not soluble
6 | MVTEQEIEAIGKTLVDPKQPLQARFRALFTLRGLGGPDAISWISRGFEDSSALLKHELAYCLGQMRDVRAIPVLVGVLQDTSQEPMVRHEAGEALGAIGNPEVLGLLKQYSTDPVVEVAETCQLAVGRLEWLQQHPGEATCAGPYLSVDPAPPAAEQDVGRLREALLDEARPLFERYRAMFALRNVGGKEAALALAEGLQCGSALFRHEVGYVLGQLQHEAAVPGLAATLARTTESPMVRHECAEALGAIARPACLAALREHIEDPEQVVRESCEVALDMYEYESSQDFQYADGLERLRPPP | soluble
7 | MVTFASGDMLADDLGRFDYVVAMDSLIYYTDADIAAALDRLGARTRHSVVFTVAPRTPFLMAFWTMGKLFPRSDRSPVMIPHPFQPLNEATGGRLVKVGRVSRGFYISECLEFRPLEHHHHHH | soluble
8 | MVTLTTNTEGATIYYTLDGSNPTNKSVRYNGRIVVNENSVIKAIAEKEGLTSSAISTFSFVIVNNEPVRIHDIQGKSHLSPYNGKKVYNVEGVVTALDKNGFYIEDNQPDNDPATSEGMYVYKKDANVAVGDLIQVDGVVEEYVGPGYAERFDTDLTTTEIKASRVVVIAKDQVLPAPIVLGENGVKIPDQIIDNDAFGLFDPNEDAIDFYESVEGMRVTMPTPKIIAPQKNGNLYVTVKNGGNKVVTKYGTPVLDENQLNPERLSVKVPRDYVAKVGDTFTGDITGVVGYDYGSFRIAPITELPSVVDGGFKQIGANIQPRLDKLEHHHHHH | soluble
